From patent US20240209100A1 (DIAGONAL THERAPEUTICS, published 2024) come the findings set out here.

For this assay, the target named is T1, IL-18 receptor (IL-18Rα/IL-18Rβ) overexpressed on HEK-Blue IL-18 cells (Homo sapiens (Human), UniProt Q13478 19-541; O95256 20-599).
T1 sequence 1: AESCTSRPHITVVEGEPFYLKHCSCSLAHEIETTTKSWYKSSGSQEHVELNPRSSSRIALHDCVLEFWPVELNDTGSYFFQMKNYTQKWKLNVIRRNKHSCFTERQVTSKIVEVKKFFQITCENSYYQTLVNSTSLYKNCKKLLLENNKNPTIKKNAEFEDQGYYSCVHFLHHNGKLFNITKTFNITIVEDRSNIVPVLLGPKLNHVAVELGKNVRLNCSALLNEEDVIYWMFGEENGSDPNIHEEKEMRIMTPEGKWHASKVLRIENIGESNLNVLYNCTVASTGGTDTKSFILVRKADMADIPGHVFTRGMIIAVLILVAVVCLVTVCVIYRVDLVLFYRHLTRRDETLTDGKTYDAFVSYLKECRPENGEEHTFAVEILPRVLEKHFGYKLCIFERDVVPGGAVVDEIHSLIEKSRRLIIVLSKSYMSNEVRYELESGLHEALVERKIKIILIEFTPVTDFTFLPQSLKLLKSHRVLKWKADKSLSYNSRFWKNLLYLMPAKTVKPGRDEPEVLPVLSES
T1 sequence 2: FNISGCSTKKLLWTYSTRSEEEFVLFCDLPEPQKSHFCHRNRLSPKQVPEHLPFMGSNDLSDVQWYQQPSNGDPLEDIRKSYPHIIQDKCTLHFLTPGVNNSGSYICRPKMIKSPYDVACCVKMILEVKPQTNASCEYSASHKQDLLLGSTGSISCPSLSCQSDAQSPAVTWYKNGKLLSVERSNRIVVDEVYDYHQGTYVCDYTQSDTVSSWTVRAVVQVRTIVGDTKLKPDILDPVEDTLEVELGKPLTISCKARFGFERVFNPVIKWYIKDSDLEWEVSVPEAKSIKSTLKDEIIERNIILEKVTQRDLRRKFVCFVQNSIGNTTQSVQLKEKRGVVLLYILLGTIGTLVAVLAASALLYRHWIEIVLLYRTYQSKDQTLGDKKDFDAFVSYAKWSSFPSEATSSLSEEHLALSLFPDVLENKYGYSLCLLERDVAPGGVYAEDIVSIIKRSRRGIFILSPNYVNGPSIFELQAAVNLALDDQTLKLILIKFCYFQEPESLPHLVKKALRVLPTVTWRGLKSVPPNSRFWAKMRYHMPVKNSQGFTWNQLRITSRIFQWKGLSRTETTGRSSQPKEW
The assay can be described thus: cell-based or functional assay.

B1: DGL293 (bispecific antibody, V domains shown)
V domain 1: QVQLVESGGGLVQAGGSLRLSCAASGRTFSSYDMGWFRQAPGKEREFVAALRWSGGSTSYADSVKGRFTISRDNAKNTVYLHMNSLKPEDTAVYYCAATLETDSGTYWADYWGQGTQVTVSS
V domain 2: QVQLVESGGDLVLPGGSLKLSCEASGSISSRNSMAWYRRAPGKQRELVAAISSISSGGRTDYADFVKGRFTIFRDTAKNMVYLQMNNLKPEDTAVYDCDDPIRVASLAYDDWGQGTQVTVSS
As for B1, the “HEK-Blue IL-18: Abs 405” value was determined as 2.83 Abs and the “HEK-Blue IL-18: Fold over Background” value stood at 12.3 fold.

B2: DGL297 (bispecific antibody, V domains shown)
V domain 1: QVQLVESGGGLVQAGGSLRLSCAASGRTFSSYTMGWFRQAPGKEREFVAAISWSAGRTYYADSVKGRFTISRDNAKNTVYLQMNSLKPEDTAVYFCAAEEAPDWAPIDCSGYGCLSLYDYWGQGTQVTVSS
V domain 2: B1 V domain 2
In the case of B2, the “HEK-Blue IL-18: Abs 405” value was found to be 0.63 Abs and the “HEK-Blue IL-18: Fold over Background” value worked out at 2.7 fold.

B3: DGL295 (bispecific antibody, V domains shown)
V domain 1: QVQLQESGGGLVQPGGSARLSCVASGIIFNDYHMGWYRQAPGKQRDLVAGITAGGSTTYADSVKGRFTISRDNAKHTVYLQMNNLSPEDTAVYYCNTFYNAILDWGKGTLVTVSS
V domain 2: B1 V domain 2
On to B3, for which the “HEK-Blue IL-18: Abs 405” value amounted to 0.46 Abs and the “HEK-Blue IL-18: Fold over Background” value worked out at 2 fold.

B4: DGL298 (bispecific antibody, V domains shown)
V domain 1: B1 V domain 1
V domain 2: QVQLVESGGGLVLPGESLRLSCVVSGTIDNINSMGWYRQAPGKQRELVAYITKLGSANYADSVEGRFTISRDNAKKTVHLQMNSLKPEDTAVYYCHANERGRITWAQGTQVTVSS
For the molecule B4, the “HEK-Blue IL-18: Abs 405” value was 0.97 Abs and the “HEK-Blue IL-18: Fold over Background” value came out at 4.2 fold.

B5: DGL294 (bispecific antibody, V domains shown)
V domain 1: EVQLVESGGGLVQPGGSLRLSCAASGSIFSINAMGWYRQAPGKQREVVATSTGGGMTNYADSVKGRFTISRDNAKNTVYLQMNSLKPEDTAVYYCNADKDPFFPGDYWGQGTQVTVSS
V domain 2: B1 V domain 2
With B5, the “HEK-Blue IL-18: Abs 405” value is 0.86 Abs and the “HEK-Blue IL-18: Fold over Background” value was 3.7 fold.

B6: DGL245 (bispecific antibody, V domains shown)
V domain 1: EVQLVESGGGLVQPGGSLRLSCAASGFTLDYYTIGWFRQAPGKEREGVSCISSSGGSTNYADYVKGRFTISRDNAKNTVSLQMNSLKPEDTAVYYCAAESLIPLVETMCVMSVDDYDYWGQGTQVTVSS
V domain 2: QLQLVESGGGLVQAGGSLRLSCAASRSITFSHNVMGWYRQAPGKQRELVASIGSGGSTNYVDSVKGRATISRDNAKKTVYLQMNSLKPEDTAVYYCGVVVGVYRGSLGQGTQVTVSS
Turning to B6, the “HEK-Blue IL-18: Abs 405” value was found to be 2.1 Abs and the “HEK-Blue IL-18: Fold over Background” value came out at 8.6 fold.

B7: DGL247 (bispecific antibody, V domains shown)
V domain 1: QVQLVESGGGSVQAGDSLRLSCAGSGRTFSSYVLGWFRQAPGKEREFVASISWSGDGTYYADSVKGRFTISRDNAENMVYLQMNSLKPEDTAVYYCAADGTTALAMSRLDASTYDFDYWGQGTQVTVSS
V domain 2: B6 V domain 2
B7: the “HEK-Blue IL-18: Abs 405” value turned out to be 0.53 Abs and the “HEK-Blue IL-18: Fold over Background” value was found to be 2.2 fold.

B8: DGL249 (bispecific antibody, V domains shown)
V domain 1: QVQLVESGGGLVQPGGSLRLSCTASGSDLHHYAIGWFRQAPGKEREGVSCISTTGAGTNYADSVKGRFTISRDNAKNTVYLQMDSLKPEETAVYYCAADGPSAIAGCVRTVASMYRYWGQGAQVTVSS
V domain 2: B6 V domain 2
On to B8, for which the “HEK-Blue IL-18: Abs 405” value was determined as 0.12 Abs and the “HEK-Blue IL-18: Fold over Background” value worked out at 0.5 fold.

B9: DGL248 (bispecific antibody, V domains shown)
V domain 1: QLQLVESGGGLVQPGGSLRLSCAASGFTLDYYAISWFRQVPGKEREGVSCISSNGGSTAYADSVKGRFTISRDNTKNTAYLQMNSLKPEDTAIYYCAASARTIQAMCQRSNFPTRYDYWGQGTQVTVSS
V domain 2: B6 V domain 2
As to B9, the “HEK-Blue IL-18: Abs 405” value was determined as 0.44 Abs and the “HEK-Blue IL-18: Fold over Background” value turned out to be 1.8 fold.

B10: DGL256 (bispecific antibody, V domains shown)
V domain 1: B8 V domain 1
V domain 2: QVQLVESGGGLVQPGGSLRLSCAASRITFSIYDMGWYRQAPGKQRELVASITRRGSTNYADSTKGRFTISRDNGKNTMYLQGNSLKPEDTAVYYCNARDILGRDYWGQGTQVTVSS
Consider B10, for which the “HEK-Blue IL-18: Abs 405” value is 0.42 Abs and the “HEK-Blue IL-18: Fold over Background” value came out at 1.7 fold.

B11: DGL299 (bispecific antibody, V domains shown)
V domain 1: B5 V domain 1
V domain 2: B4 V domain 2
Turning to B11, the “HEK-Blue IL-18: Abs 405” value came to 0.91 Abs and the “HEK-Blue IL-18: Fold over Background” value is 4 fold.

B12: DGL300 (bispecific antibody, V domains shown)
V domain 1: QVQLQESGGGLVQPGGSLRLSCAASGSIFSTKGLGWYRQAPGEQRELVAGISSAGWIFYTQSVKGRFTMSRDNAKNTVYLQMNSLKPEDTAVYYCNSAQSGVPLRSWGQGTQVTVAS
V domain 2: B4 V domain 2
Consider B12, for which the “HEK-Blue IL-18: Abs 405” value amounted to 1.07 Abs and the “HEK-Blue IL-18: Fold over Background” value is 4.7 fold.

B13: DGL250 (bispecific antibody, V domains shown)
V domain 1: QVQLVESGGGLVQAGGSLRLSCAASGRTFSKHAMGWFRQAPGKEREFVAAIDWSGGSTYYADSVKGRFTISRDNAKNTVYLQMDSLKPEDTAVYYCAADSYTDYAQLWLPELESEYDYWGQGTQVTVSS
V domain 2: QLQLVESGGGLVQPGGSLRLSCAAPGRIFGLNAMGWYRQAPGKQRELVASITTGGSTNYADSGKGRFTLSRSNAQNTVYRQMNSLQPEDTAVYYCNAKRGLNLNYWGQGTQVTVSS
In the case of B13, the “HEK-Blue IL-18: Abs 405” value was determined as 0.49 Abs and the “HEK-Blue IL-18: Fold over Background” value was found to be 2 fold.

B14: DGL253 (bispecific antibody, V domains shown)
V domain 1: B13 V domain 1
V domain 2: QVQLQESGGGLVQAGGSPRLSCAVSGTAFNINNFMGWYRQAPGKQRELVATITGSSTTNYASSVKGRFTISRDSAKNTVYLQMNSLKPEDTAVYYCNLRRGGWYNYWGQGTQVTVSS
For the molecule B14, the “HEK-Blue IL-18: Abs 405” value amounted to 0.29 Abs and the “HEK-Blue IL-18: Fold over Background” value amounted to 1.2 fold.

B15: DGL255 (bispecific antibody, V domains shown)
V domain 1: B13 V domain 1
V domain 2: B10 V domain 2
In the case of B15, the “HEK-Blue IL-18: Abs 405” value is 0.32 Abs and the “HEK-Blue IL-18: Fold over Background” value worked out at 1.3 fold.

B16: DGL252 (bispecific antibody, V domains shown)
V domain 1: B13 V domain 1
V domain 2: QVQLQESGGGLVQAGGSLRLSCAASASIFSRYAIGWYRQAPGKQRDLVAAITSGGTTNYADSVKGRFTISTDNAKNTVYLQMNSLKPEDTAVYSCAAGDSRANYYWGQGTQVTVSS
B16: the “HEK-Blue IL-18: Abs 405” value was found to be 0.32 Abs and the “HEK-Blue IL-18: Fold over Background” value turned out to be 1.3 fold.

B17: DGL251 (bispecific antibody, V domains shown)
V domain 1: B13 V domain 1
V domain 2: EVQLVESGGGLVQTGGSLRLSCVASETITDTFRMGWYRQAPGQQRELVAAITHTSETTYGDSVTGRFTISGDTAKNMVHLQMNSLKPEDTGVYYCNIRAWRRPDYWGQGTQVTVSS
In the case of B17, the “HEK-Blue IL-18: Abs 405” value was determined as 0.31 Abs and the “HEK-Blue IL-18: Fold over Background” value was found to be 1.3 fold.

B18: DGL254 (bispecific antibody, V domains shown)
V domain 1: B13 V domain 1
V domain 2: QVQLVESGGGLVQAGGSLRLSCAASESIFSFVAMGWYRQAPGKQRELVVKISSGGSTNYADSVKGRFTISRDNAKNTVYLEMNSLKFEDTGVYYCNAVRPNGMDYWGKGTLVTVSS
With B18, the “HEK-Blue IL-18: Abs 405” value was 0.3 Abs and the “HEK-Blue IL-18: Fold over Background” value was 1.2 fold.

B19: DGL296 (bispecific antibody, V domains shown)
V domain 1: B13 V domain 1
V domain 2: B1 V domain 2
Consider B19, for which the “HEK-Blue IL-18: Abs 405” value is 0.66 Abs and the “HEK-Blue IL-18: Fold over Background” value amounted to 2.9 fold.
